# Reference: the supplement of paper PMC10126150
# ± gives the standard deviation of the averaged measurements.
# System: ATP
# Assay: switch fluorescence ratio, 500 uM ATP over buffer (Cy3 cluster intensity, sum of 5 cycles each) (fold (ratio)); higher = stronger signal-on switching upon ATP binding; sequences stand for … in TCGTCGGCAGCGTCAGATGTGTATAAGAGACAGTTTTTTTTTTTTTTTTTTTTTTTTT…TC
# Settings: aptamer strand: ATP DNA aptamer (quencher-CACCTGGGGGAGTATTGCGGAGGAAGG + anchor), 100 nM annealed; ATP concentration: 500 uM
# Procedure, shortened: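 Between each of five buffer/ATP cycles, the flow-cell was stripped with NaOH and re-annealed. Each cycle imaged Cy3-labelled switching-strand clusters, annealed to 100 nM quencher-labelled ATP aptamer on a modified Illumina MiSeq flow-cell, first in selection buffer and then after 15 min with 500 uM ATP at 22 °C. The fluorescence ratio is summed target-cycle over summed buffer-cycle Cy3 intensity per cluster, averaged per switch-domain sequence, with clusters outside 100-1000 RFU excluded.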
# 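Note: ATP exposure 15 min at 22 °C before imaging.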
sequence,measurement,value
TTCCAATAGG,switch fluorescence ratio,1.13 ± 0.21
TTCCACGTAT,switch fluorescence ratio,1.18 ± 0.046
TTCCACGTTT,switch fluorescence ratio,1.11 ± 0.12
TTCCAGGGCA,switch fluorescence ratio,1.02 ± 0.022
TTCCAGTTT,switch fluorescence ratio,1 ± 0.04
TTCCATAGGG,switch fluorescence ratio,0.987 ± 0.022
TTCCATCACA,switch fluorescence ratio,1.01 ± 0.021
TTCCCATGGG,switch fluorescence ratio,1.02 ± 0.027
TTCCCGGGTG,switch fluorescence ratio,1.53 ± 0.55
TTCCCTTATG,switch fluorescence ratio,0.976 ± 0.017
TTCCCTTTTG,switch fluorescence ratio,1.02 ± 0.0057
TTCCGAAAAT,switch fluorescence ratio,1.01 ± 0.046
TTCCGAGTTT,switch fluorescence ratio,1.15 ± 0.19
TTCCGCACGT,switch fluorescence ratio,2.64 ± 1.3
TTCCGGAGAT,switch fluorescence ratio,1.43 ± 0.34
TTCCGGCTCT,switch fluorescence ratio,1.61 ± 0.8
TTCCGGGGGG,switch fluorescence ratio,1.02 ± 0.054
TTCCGGGGTA,switch fluorescence ratio,1.02 ± 0.032
TTCCGTTTTA,switch fluorescence ratio,1.15 ± 0.17
TTCCTCCTTC,switch fluorescence ratio,1.83 ± 0.89
TTCCTCGTTA,switch fluorescence ratio,1.39 ± 0.029
TTCCTGATGC,switch fluorescence ratio,1.04 ± 0.092
TTCCTGTCGT,switch fluorescence ratio,1.004 ± 0.0021
TTCCTTATTA,switch fluorescence ratio,1.02 ± 0.011
TTCGAAAAAG,switch fluorescence ratio,0.9961 ± 0.008
TTCGAAGGGT,switch fluorescence ratio,1.09 ± 0.1
TTCGAATGTG,switch fluorescence ratio,1.01 ± 0.028
TTCGAATTGT,switch fluorescence ratio,0.976 ± 0.037
TTCGATAGCA,switch fluorescence ratio,1.06 ± 0.058
TTCGCGGCTA,switch fluorescence ratio,1.07 ± 0.016
TTCGCGTTTT,switch fluorescence ratio,1.02 ± 0.04
TTCGGACGT,switch fluorescence ratio,1.02 ± 0.013
TTCGGAGAAT,switch fluorescence ratio,1.16 ± 0.23
TTCGGATGAG,switch fluorescence ratio,0.977 ± 0.041
TTCGGATGGG,switch fluorescence ratio,1 ± 0.034
TTCGGCCACG,switch fluorescence ratio,1.01 ± 0.036
TTCGGGAACT,switch fluorescence ratio,1 ± 0.038
TTCGGGAGTG,switch fluorescence ratio,0.985 ± 0.02
TTCGGGATGA,switch fluorescence ratio,1 ± 0.056
TTCGGGCGGA,switch fluorescence ratio,0.98 ± 0.011
TTCGGGGCAT,switch fluorescence ratio,1.05 ± 0.097
TTCGGGGCCA,switch fluorescence ratio,0.991 ± 0.013
TTCGGGGGT,switch fluorescence ratio,0.983 ± 0.024
TTCGGGGGTG,switch fluorescence ratio,1.01 ± 0.031
TTCGGGTCCG,switch fluorescence ratio,0.988 ± 0.067
TTCGGGTTAA,switch fluorescence ratio,1.05 ± 0.017
TTCGGTAGTG,switch fluorescence ratio,0.9923 ± 0.0083
TTCGGTCCGT,switch fluorescence ratio,0.981 ± 0.026
TTCGGTCGTA,switch fluorescence ratio,1.01 ± 0.053
TTCGGTGGGA,switch fluorescence ratio,1.07 ± 0.02
TTCGGTTAGA,switch fluorescence ratio,1.02 ± 0.015
TTCGGTTGGA,switch fluorescence ratio,0.984 ± 0.017
TTCGTAACGC,switch fluorescence ratio,1.03 ± 0.038
TTCGTAATGT,switch fluorescence ratio,1.036 ± 0.0083
TTCGTAGCAG,switch fluorescence ratio,1.23 ± 0.063
TTCGTCATGG,switch fluorescence ratio,1.027 ± 0.0075
TTCGTCGGGC,switch fluorescence ratio,0.9863 ± 0.0071
TTCGTGACCT,switch fluorescence ratio,1.1 ± 0.094
TTCGTGGTTT,switch fluorescence ratio,1.032 ± 0.0055
TTCGTTACAG,switch fluorescence ratio,0.998 ± 0.027
TTCGTTGAAT,switch fluorescence ratio,0.97 ± 0.024
TTCGTTTAAT,switch fluorescence ratio,0.9989 ± 0.0017
TTCGTTTACA,switch fluorescence ratio,1.01 ± 0.028
TTCGTTTGCT,switch fluorescence ratio,0.955 ± 0.035
TTCGTTTTGT,switch fluorescence ratio,0.9975 ± 0.0097
TTCGTTTTTT,switch fluorescence ratio,0.985 ± 0.047
TTCTAAAGAT,switch fluorescence ratio,0.969 ± 0.034
TTCTAAAGGT,switch fluorescence ratio,1.02 ± 0.04
TTCTAAGGGA,switch fluorescence ratio,1.01 ± 0.023
TTCTAAGGTC,switch fluorescence ratio,0.978 ± 0.036
TTCTAATCCG,switch fluorescence ratio,1.036 ± 0.0091
TTCTACGGGC,switch fluorescence ratio,1.11 ± 0.025
TTCTACTAGT,switch fluorescence ratio,0.98 ± 0.024
TTCTATAATT,switch fluorescence ratio,1.03 ± 0.02
TTCTATATTT,switch fluorescence ratio,1.01 ± 0.055
TTCTATGGAA,switch fluorescence ratio,1.01 ± 0.016
TTCTATGGTG,switch fluorescence ratio,1 ± 0.04
TTCTATTTGA,switch fluorescence ratio,1.0138 ± 0.00028
TTCTCAATGT,switch fluorescence ratio,1.08 ± 0.14
TTCTCAGGGG,switch fluorescence ratio,1.12 ± 0.038
TTCTCAGTTT,switch fluorescence ratio,1.15 ± 0.22
TTCTCATTGG,switch fluorescence ratio,0.9893 ± 0.0039
TTCTCGGCCC,switch fluorescence ratio,1.11 ± 0.019
TTCTCGTTCT,switch fluorescence ratio,0.996 ± 0.045
TTCTGAAACA,switch fluorescence ratio,0.969 ± 0.036
TTCTGAGAAT,switch fluorescence ratio,1.042 ± 0.0044
TTCTGCGTAT,switch fluorescence ratio,1.01 ± 0.036
TTCTGCTATC,switch fluorescence ratio,1.79 ± 0.12
TTCTGGAAAT,switch fluorescence ratio,0.994 ± 0.016
TTCTGGCAAT,switch fluorescence ratio,2.97 ± 0.14
TTCTGTACGG,switch fluorescence ratio,1.02 ± 0.014
TTCTGTAGCG,switch fluorescence ratio,1.06 ± 0.13
TTCTGTGTGG,switch fluorescence ratio,0.981 ± 0.011
TTCTGTTATC,switch fluorescence ratio,1.023 ± 0.0087
TTCTGTTTTA,switch fluorescence ratio,1.05 ± 0.021
TTCTTAGATG,switch fluorescence ratio,1.016 ± 0.0088
TTCTTAGCCG,switch fluorescence ratio,1.0545 ± 0.00031
TTCTTAGGGA,switch fluorescence ratio,0.9863 ± 0.0054
TTCTTCGACA,switch fluorescence ratio,1.08 ± 0.034
TTCTTGGAAT,switch fluorescence ratio,0.969 ± 0.049
TTCTTGGGAT,switch fluorescence ratio,1 ± 0.019
TTCTTGTCGG,switch fluorescence ratio,0.984 ± 0.027
TTCTTTACGG,switch fluorescence ratio,0.986 ± 0.026
TTCTTTAGGG,switch fluorescence ratio,1.16 ± 0.26
TTCTTTATGT,switch fluorescence ratio,0.999 ± 0.021
TTCTTTGGAT,switch fluorescence ratio,1.03 ± 0.028
TTCTTTGGCT,switch fluorescence ratio,0.977 ± 0.018
TTCTTTTACT,switch fluorescence ratio,1.01 ± 0.023
TTCTTTTTAG,switch fluorescence ratio,0.9793 ± 0.0051
TTGAAAAATG,switch fluorescence ratio,1.03 ± 0.028
TTGAAACAGA,switch fluorescence ratio,0.985 ± 0.038
TTGAAAGGGG,switch fluorescence ratio,0.996 ± 0.083
TTGAAAGTTC,switch fluorescence ratio,1 ± 0.077
TTGAAATAAT,switch fluorescence ratio,1.1 ± 0.14
TTGAAGAAAC,switch fluorescence ratio,1.04 ± 0.018
TTGAAGCAAA,switch fluorescence ratio,1.44 ± 0.37
TTGAAGGAGA,switch fluorescence ratio,1.01 ± 0.021
TTGAAGGCTT,switch fluorescence ratio,0.997 ± 0.013
TTGAAGTAGC,switch fluorescence ratio,1.01 ± 0.044
TTGAATAAGA,switch fluorescence ratio,1 ± 0.071
TTGAATCAAG,switch fluorescence ratio,1.01 ± 0.041
TTGAATCCAT,switch fluorescence ratio,1.01 ± 0.019
TTGAATTAAC,switch fluorescence ratio,1.03 ± 0.06
TTGAATTCGG,switch fluorescence ratio,0.9841 ± 0.0039
TTGAATTTGG,switch fluorescence ratio,0.9794 ± 0.0085
TTGAATTTTC,switch fluorescence ratio,1.02 ± 0.061
TTGACAGCGA,switch fluorescence ratio,1.22 ± 0.061
TTGACAGGCA,switch fluorescence ratio,0.968 ± 0.012
TTGACATGGG,switch fluorescence ratio,1 ± 0.029
TTGACGGGAG,switch fluorescence ratio,0.997 ± 0.027
TTGACGTAAA,switch fluorescence ratio,1.61 ± 0.56
TTGACGTTGC,switch fluorescence ratio,1.01 ± 0.033
TTGAGAATCC,switch fluorescence ratio,1.007 ± 0.0087
TTGAGAGATT,switch fluorescence ratio,1.011 ± 0.0091
TTGAGAGGAG,switch fluorescence ratio,0.98 ± 0.02
TTGAGATTAT,switch fluorescence ratio,0.986 ± 0.015
TTGAGATTGG,switch fluorescence ratio,0.998 ± 0.03
TTGAGCACGG,switch fluorescence ratio,0.998 ± 0.019
TTGAGCAGCT,switch fluorescence ratio,1.08 ± 0.085
TTGAGGCAGG,switch fluorescence ratio,1.027 ± 0.0065
TTGAGGCCCA,switch fluorescence ratio,1.17 ± 0.22
TTGAGGCCTT,switch fluorescence ratio,1.01 ± 0.022
TTGAGGGCTT,switch fluorescence ratio,0.998 ± 0.025
TTGAGGGGAT,switch fluorescence ratio,1.004 ± 0.0059
TTGAGGGTCC,switch fluorescence ratio,1.004 ± 0.0056
TTGAGGTACG,switch fluorescence ratio,1.03 ± 0.082
TTGAGGTTA,switch fluorescence ratio,1.07 ± 0.069
TTGAGTGTGT,switch fluorescence ratio,0.9604 ± 0.0023
TTGAGTTAC,switch fluorescence ratio,1.03 ± 0.06
TTGAGTTTTA,switch fluorescence ratio,1.01 ± 0.021
TTGATAAAAA,switch fluorescence ratio,0.998 ± 0.083
TTGATAAGTT,switch fluorescence ratio,0.9751 ± 0.0069
TTGATAATCT,switch fluorescence ratio,1 ± 0.026
TTGATACAGG,switch fluorescence ratio,1.29 ± 0.37
TTGATCAGGG,switch fluorescence ratio,0.989 ± 0.042
TTGATCCAGT,switch fluorescence ratio,0.997 ± 0.031
TTGATCTCGG,switch fluorescence ratio,1.014 ± 0.0061
